What all share (settings): both partners purified
One assay addresses T1, FP8v1-rTTHC (HIV-1, fusion peptide 512-519 (BG505 …)).
T1 construct: also called fusion peptide
T1 chain: AVGIGAVF
Nature of the assay: ELISA.

The next assay addresses T2, FP7v1-rTTHC (HIV-1, fusion peptide 512-518).
T2 construct: also called shorter peptides
T2 chain: AVGIGAV
Nature of the assay: ELISA; plates coated with 2 μg/mL fusion peptide-rTTHC; 2C06 or 2C09 antibody serially diluted from 2 μg/mL, 1 h 37°C; anti-human IgG-HRP.

For the next assay, the target named is T3, FP6v1-rTTHC (HIV-1, fusion peptide 512-517).
T3 construct: also called shorter peptides
T3 chain: AVGIGA
The assay is described as above.

From paper PMC10491024 (Cell reports, 2023) come the findings set out here.

B1: N751-2C06.01 IgG (antibody, V domains shown)
VH: EVQLVESGGGLVQPGGSLRLSCSASGFTFSSYAMHWVRQAPGKGLEYVSAISGNGDSTYYADSVRGRFTISRDNSKNTLYLQMSSLRAEDTAVYYCVKQAAYCTRTSCYYFDYWGQGTLVTVSS
VL: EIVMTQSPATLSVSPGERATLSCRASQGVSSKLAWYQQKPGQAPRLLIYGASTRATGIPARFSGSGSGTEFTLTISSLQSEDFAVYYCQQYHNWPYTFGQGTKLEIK
As to B1, the binding result in the assay with FP8v1-rTTHC is recorded as “binds”.

B2: N751-2C09.01 IgG (antibody, V domains shown)
VH: EVQLVESGEGLVQPGGSLRLSCAASGFTFSSHAMHWVRQAPGKGLEYVSAISSEGGSTYYADSVRGRFIISRDNSKNTLYLQMGSLRAEDMAVYYCARVTGDYNWYFDLWGRGTLVTVSS
VL: EIVMTQSPATLSVSPGERATLSCRASQGVSSNLAWYQQKPGQAPRLLIHGASTRATGSPARFSGSGSGTEFTLTISSLQSEDFAVYSCQQYHNWPWTFGQGTKVEIK
Regarding B2, the binding result in the assay with FP8v1-rTTHC, with FP7v1-rTTHC and in the assay with FP6v1-rTTHC was “binds” throughout.
